Data from US20220162293A1 (UNIVERSITY OF BRITISH COLUMBIA, published 2022).
Residue numbers refer to the chain shown, from its start. Blank lines part the entries; values can stand above or below the binder they belong to.

How the values were obtained:
Linear … (SEQ ID NO: 2) = target: T1, Linear … (SEQ ID NO: 2); assay: indirect ELISA, peptide coated 0.1 µg/well, neat hybridoma supernatant
T1 sequence (peptide): CGGTTEQGG

BSA = target: T2, BSA (bovine, UniProt P02769 25-607); assay: screen of hybridoma supernatants
T2 construct: Carrier protein used as negative screening antigen; also called bovine serum albumin

[1] = target: T3, cyclo(CGGTTEQGG) (SEQ ID NO: 2) (cyclic peptide: head to tail cyclization (amide condensation of the linear peptide)); assay: indirect ELISA, peptide coated 0.1 µg/well, neat hybridoma supernatant
T3 construct: Coated on ELISA plates
T3 peptide: CGGTTEQGG
Method: (§1) ELISA plates were coated with 0.1 μg/well with peptide cyclo([…]) (SEQ ID NO: 2) or cyclo(CGTTEQG) (SEQ ID NO: 3) or the linear versions thereof at 100 μL/well in carbonate Coating Buffer (pH 9.6) overnight at 4 C. In other assays, cyclo([…]) (SEQ ID NO: 32) or cyclo (CGTTEGG) (SEQ ID NO: 29) were also used to coat the ELISA plates.
(§2) The plates were blocked with 3% skim milk powder in PBS for 1 hour at room temperature. The primary antibody, hybridoma tissue culture supernatant neat at 100 uL/well, was incubated for 1 hour at 37 C with shaking. The secondary antibody, goat anti-mouse IgGy-HRP at a 1:10,000 dilution was added at 100 uL/well in PBS-Tween and incubated for 1 hour at 37 C with shaking. All washing steps were performed for 30 mins with PBS-Tween. TMB Substrate was added at 50 uL/well, developed in the dark and stopped with equal volume 1M HCl. The development time was 1-2 min and the plate was read at 450 nm.

[2] = target: T4, Linear CGGTTEQGG (SEQ ID NO: 2); assay: as above
T4 construct: Coated on ELISA plates; also called linear peptide
T4 peptide: CGGTTEQGG
Method: as §1, §2

[3] = target: T5, TDP-43 in human spinal cord homogenates of sporadic ALS patients (human, UniProt Q13148 1-414, limits assumed); assay: dot blot of spinal cord homogenates on PVDF
T5 construct: Tissue homogenate dotted on PVDF; also called sALS samples; pathogenic TDP43 in spinal cord homogenates from ALS patients
T5 sequence (Q13148 whole entry): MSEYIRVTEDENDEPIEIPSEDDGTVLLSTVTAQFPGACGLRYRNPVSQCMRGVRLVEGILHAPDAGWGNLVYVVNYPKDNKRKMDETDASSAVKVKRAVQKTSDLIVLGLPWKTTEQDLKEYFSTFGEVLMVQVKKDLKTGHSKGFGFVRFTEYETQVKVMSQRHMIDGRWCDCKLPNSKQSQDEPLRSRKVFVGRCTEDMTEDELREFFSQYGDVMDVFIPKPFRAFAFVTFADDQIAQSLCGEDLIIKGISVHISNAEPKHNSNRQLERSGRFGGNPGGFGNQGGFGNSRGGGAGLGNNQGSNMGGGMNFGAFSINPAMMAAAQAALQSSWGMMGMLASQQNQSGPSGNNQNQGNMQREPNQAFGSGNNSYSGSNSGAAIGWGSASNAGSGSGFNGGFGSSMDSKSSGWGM

T2 sequence (P02769 25-607 limits assumed): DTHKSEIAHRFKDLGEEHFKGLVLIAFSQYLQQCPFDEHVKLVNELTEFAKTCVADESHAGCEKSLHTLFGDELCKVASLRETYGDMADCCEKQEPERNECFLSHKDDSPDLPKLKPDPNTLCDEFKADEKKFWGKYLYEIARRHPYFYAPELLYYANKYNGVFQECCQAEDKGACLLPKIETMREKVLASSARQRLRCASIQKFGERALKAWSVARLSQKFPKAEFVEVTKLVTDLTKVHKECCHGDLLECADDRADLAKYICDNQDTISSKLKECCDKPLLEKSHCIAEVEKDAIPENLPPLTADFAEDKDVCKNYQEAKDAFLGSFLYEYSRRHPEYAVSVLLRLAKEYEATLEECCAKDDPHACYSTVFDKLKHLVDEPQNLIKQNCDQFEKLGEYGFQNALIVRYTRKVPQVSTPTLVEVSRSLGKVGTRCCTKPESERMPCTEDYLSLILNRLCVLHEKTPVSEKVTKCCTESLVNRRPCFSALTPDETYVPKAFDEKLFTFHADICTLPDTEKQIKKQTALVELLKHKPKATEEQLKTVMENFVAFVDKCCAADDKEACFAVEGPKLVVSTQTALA

ELISA signal (read at 450 nm) (absorbance at 450 nm) (Linear … (SEQ ID NO: 2)): 0.071 | binding result (BSA): no binding | ELISA signal (read at 450 nm) [1]: 1.1 absorbance at 450 nm
B1: 11F3 (antibody, V domains shown)
VH: QIQLVQSGPELKKPGETVKISCKASGYTFTDYSMHWVKHSPGKGLKWMGWINTETGEPTYADDFKGRFAFSLETSASTAYLQINNLKNEDTATYFCARGYGNWFAYWGQGTLVTVSA
VL: QIVLTQSPAIMSASLGERVTMTCTASSSVSSSYLHWYQQKPGSSPKLWIYSTSNLASGVPARFSGSGSGTSYSLTISSMEAEDAATYYCHQYHRSPLTFGAGTKLELK
notes: IgG1, kappa; also called clone 11F3; antibody 3

ELISA signal (read at 450 nm) (absorbance at 450 nm) (Linear … (SEQ ID NO: 2)): 0.115 | binding result (BSA): no binding | ELISA signal (read at 450 nm) [1]: 2.29 absorbance at 450 nm
B2: 9C5 (antibody, V domains shown)
VH: EVQLVESGGGLVKPGGSLKLSCAASGFTFSDYYMYWVRQTPEKRLEWVATISDGGSYTSYPDSVKGRFTISRDNAKNNLYLQMSSLRSEDTAMYYCARDYYGSSSYTSGFAYWGQGTLVTVSA
VL: DVLMTQTPLSLPVSLGDQASISCRSSQSIVHSNGNTYLEWYLQKPGQSPKLLIYKVSNRFSGVPDRFSGSGSGTDFTLKISRVEAEDLGVYYCFQGSHVPGTFGGGTKLEIK
notes: IgG3, kappa; also called clone 9C5; antibody 6

binding result (BSA): no binding | ELISA signal (read at 450 nm) [2]: 0.191 absorbance at 450 nm | ELISA signal (read at 450 nm) [1]: 1.1 absorbance at 450 nm | binding result [3]: binds
B3: 6C5 (antibody, V domains shown)
VH: EVKLVESGGGLVQPGGSLKLSCATSGFTFSDYYMYWVRQTPEKRLEWVAYISNGGGSTYYPDTVKGRFTISRDNAKNTLYLQMSRLKSEDTAMYYCAREGGTAWFAYWGQGTLVTVSA
VL: B2 VL with G101Y
notes: IgG1, kappa; also called Antibody 6C5

ELISA signal (read at 450 nm) (absorbance at 450 nm) (Linear … (SEQ ID NO: 2)): 0.068 | binding result (BSA): no binding | ELISA signal (read at 450 nm) [1]: 2.83 absorbance at 450 nm
B4: 3H5 (antibody, V domains shown)
VH: QIQLVQSGPELKKPGETVKISCKASGYTFTDYSMHWVKQAPGKGLKWMGWINTETGEPTYADDFKGRFAFSLETSASTAYLQINNLKNEDTATYFCASRRWYPYYFDYWGQGTTLTVSS
VL: QAVVTQESALTTSPGETVTLTCRSSTGAVTTSNYANWVQEKPDHLFTGLIGGPNNRAPGVPARFSGSLIGDKAALTITGAQTEDEAIYFCALWYSNHWVFGGGTKLTVL
notes: IgG1, lambda; also called clone 3H5; antibody 4
